The source of these data is patent US20230056252A1 (Gilead, published 2023).

To fix the notation:
B1: huSP34.9.6 Fab-HF (Fab, V domains shown)
VH: EVQLVESGGGLVQPGGSLRLSCAASGFTFSDYAMNWVRQAPGKGLEWVGRTRSKYNSYATYYAASVKGRFTISRDDSKNSLYLQMNSLKTEDTAVYYCVRHGNFGNSYVSWFAVWGQGTLVTVSS
VL: QAVVTQPPSLTVSPGGTVTLTCGSSTGAVTTGHYANWVQQKPGQAPRGLIGGTSNRAPGVPARFSGSLSGGKAALTISGAQPEDEAEYYCALWYSARWVFGGGTKLTVL
notes: also called HC9+LC6
B2: huSP34.10.6 Fab-HF (Fab, V domains shown)
VH: EVQLVESGGGLVQPGGSLRLSCAASGFTFSDYAMNWVRQAPGKGLEWVGRTRSKYNSYATYYAASVKGRFTISRDDSKNSLYLQMNSLKTEDTAVYYCVRHGNFGHSYVSWFAVWGQGTLVTVSS
VL: QAVVTQPPSLTVSPGGTVTLTCGSSTGAVTTGHYANWVQQKPGQAPRGLIGGTSNRAPGVPARFSGSLSGGKAALTISGAQPEDEAEYYCALWYSARWVFGGGTKLTVL
notes: also called HC10+LC6
B3: huSP34.3.13 Fab-HF (Fab, V domains shown)
VH: EVQLVESGGGLVQPGGSLRLSCAASGFTFNTYAMNWVRQAPGKGLEWVGRIRSKYNNYATYYADSVKGRFTISRDDSKNSLYLQMNSLRTEDTAVYYCVRHGNFGHSYVSWFAYWGQGTLVTVSS
VL: QAVVTQEPSLTVSPGGTVTLTCGSSTGAVTTGHYANWVQQKPGQAPRGLIGGTSNRAPGVPARFSGSLLGGKAALTISGAQPEDEAEYYCALWYSNRWVFGGGTKLTVL
notes: also called HC3+LC13
B4: huSP34.34.15 Fab-HF (Fab, V domains shown)
VH: EVQLVESGGGLVQPGGSLRLSCAASGFTFNTYAMNWVRQAPGKGLEWVGRIRSKYNNYATYYAASVKGRFTISRDDSKNSLYLQMNSLKTEDTAMYYCVRHGNFGHSYVSWFAYWGQGTLVTVSS
VL: QAVVTQPPSLTVSPGGTVTLTCGSSTGAVTTGHYANWVQQKPGQAPRGLIGGTNKRAPGVPARFSGSLSGGKAALTISGAQPEDEAEYYCALWYSARWVFGGGTKLTVL
notes: also called HC34+LC15
B5: huSP34.34.12 Fab-HF (Fab, V domains shown)
VH: EVQLVESGGGLVQPGGSLRLSCAASGFTFNTYAMNWVRQAPGKGLEWVGRIRSKYNNYATYYAASVKGRFTISRDDSKNSLYLQMNSLKTEDTAMYYCVRHGNFGHSYVSWFAYWGQGTLVTVSS
VL: QAVVTQPPSLTVSPGGTVTLTCGSSTGAVTTGHYANWVQQKPGQAPRGLIGGTNKRAPWTPARFSGSLSGGKAALTISGAQPEDEAEYYCALWYSNRWVFGGGTKLTVL
notes: also called HC34+LC12
B6: huSP34.34.11 Fab-HF (Fab, V domains shown)
VH: EVQLVESGGGLVQPGGSLRLSCAASGFTFNTYAMNWVRQAPGKGLEWVGRIRSKYNNYATYYAASVKGRFTISRDDSKNSLYLQMNSLKTEDTAMYYCVRHGNFGHSYVSWFAYWGQGTLVTVSS
VL: QAVVTQEPSLTVSPGGTVTLTCGSSTGAVTTGHYANWVQQKPGQAPRGLIGGTNKRAPGVPARFSGSLLGGKAALTLSGAQPEDEAEYYCALWYSNLWVFGGGTKLTVL
notes: also called HC34+LC11
B7: huSP34.34.16 Fab-HF (Fab, V domains shown)
VH: EVQLVESGGGLVQPGGSLRLSCAASGFTFNTYAMNWVRQAPGKGLEWVGRIRSKYNNYATYYAASVKGRFTISRDDSKNSLYLQMNSLKTEDTAMYYCVRHGNFGHSYVSWFAYWGQGTLVTVSS
VL: QAVVTQPPSLTVSPGGTVTLTCGSSTGAVTTGHYANWVQQKPGQAPRGLIGGTSNRAPWTPARFSGSLSGGKAALTISGAQPEDEAEYYCALWYSNRWVFGGGTKLTVL
notes: also called HC34+LC16
B8: huSP34.34.17 Fab-HF (Fab, V domains shown)
VH: EVQLVESGGGLVQPGGSLRLSCAASGFTFNTYAMNWVRQAPGKGLEWVGRIRSKYNNYATYYAASVKGRFTISRDDSKNSLYLQMNSLKTEDTAMYYCVRHGNFGHSYVSWFAYWGQGTLVTVSS
VL: QAVVTQPPSLTVSPGGTVTLTCGSSTGAVTTGHYANWVQQKPGQAPRGLIGGTNKRAPWTPARFSGSLSGGKAALTISGAQPEDEAEYYCALWYSARWVFGGGTKLTVL
notes: also called HC34+LC17
B9: huSP34.35.10 Fab-HF (Fab, V domains shown)
VH: EVQLVESGGGLVQPGGSLRLSCAASGFTFNDYAMNWVRQAPGKGLEWVGRTRSKYNNYATYYAASVKGRFTISRDDSKNSLYLQMNSLKTEDTAMYYCVRHGNFGHSYVSWFAYWGQGTLVTVSS
VL: QAVVTQPPSLTVSPGGTVTLTCGSSTGAVTTGHYANWVQQKPGQAPRGLIGGTNKRAPGVPARFSGSLSGGKAALTISGAQPEDEAEYYCALWYSNRWVFGGGTKLTVL
notes: also called HC35+LC10
B10: huSP34.34.18 Fab-H (Fab, V domains shown)
VH: EVQLVESGGGLVQPGGSLRLSCAASGFTFNTYAMNWVRQAPGKGLEWVGRIRSKYNNYATYYAASVKGRFTISRDDSKNSLYLQMNSLKTEDTAMYYCVRHGNFGHSYVSWFAYWGQGTLVTVSS
VL: QAVVTQPPSLTVSPGGTVTLTCGSSTGAVTTGHYANWVQQKPGQAPRGLIGGTSNRAPWTPARFSGSLSGGKAALTISGAQPEDEAEYYCALWYSARWVFGGGTKLTVL
notes: also called HC34+LC18
B11: huSP34.34.10 Fab-HF (Fab, V domains shown)
VH: EVQLVESGGGLVQPGGSLRLSCAASGFTFNTYAMNWVRQAPGKGLEWVGRIRSKYNNYATYYAASVKGRFTISRDDSKNSLYLQMNSLKTEDTAMYYCVRHGNFGHSYVSWFAYWGQGTLVTVSS
VL: QAVVTQPPSLTVSPGGTVTLTCGSSTGAVTTGHYANWVQQKPGQAPRGLIGGTNKRAPGVPARFSGSLSGGKAALTISGAQPEDEAEYYCALWYSNRWVFGGGTKLTVL
notes: also called HC34+LC10
B12: huSP34.3.19 Fab-HF (Fab, V domains shown)
VH: EVQLVESGGGLVQPGGSLRLSCAASGFTFNTYAMNWVRQAPGKGLEWVGRIRSKYNNYATYYADSVKGRFTISRDDSKNSLYLQMNSLRTEDTAVYYCVRHGNFGHSYVSWFAYWGQGTLVTVSS
VL: QAVVTQEPSLTVSPGGTVTLTCGSSTGAVTTGHYANWVQQKPGQAPRGLIGGTNKRAPGVPARFSGSLLGGKAALTISGAQPEDEAEYYCALWYSARWVFGGGTKLTVL
notes: also called HC3+LC19
B13: huSP34.34.14 Fab-HF (Fab, V domains shown)
VH: EVQLVESGGGLVQPGGSLRLSCAASGFTFNTYAMNWVRQAPGKGLEWVGRIRSKYNNYATYYAASVKGRFTISRDDSKNSLYLQMNSLKTEDTAMYYCVRHGNFGHSYVSWFAYWGQGTLVTVSS
VL: QAVVTQPPSLTVSPGGTVTLTCGSSTGAVTTGHYANWVQQKPGQAPRGLIGGTSNRAPGVPARFSGSLSGGKAALTISGAQPEDEAEYYCALWYSNRWVFGGGTKLTVL
notes: also called HC34+LC14

One experiment concerns the target T1, biotinylated CD3 epsilon:delta heterodimer protein (Amsbio AMS.CDD-H52WO) (Homo sapiens (Human), UniProt P07766 23-126; P04234 22-105).
T1 construct: also called CD3 heterodimer
The experiment is described as follows: BLI (Octet), CD3 on SA sensor, Fab analyte. (In general: In BLI a coated tip is dipped into the sample, and binding shifts an interference pattern.)
Experimental: (§1) The CD3 binding kinetics of the purified huSP34 Fabs were determined using OctetRed384 (Pall ForteBio, CA) biolayer interferometry (BLI). […] Streptavidin (SA) coated biosensors tips (Pall ForteBio, CA) were used to capture biotinylated CD3 epsilon: delta heterodimer and typical immobilization levels captured on the SA sensors were 1 nm which approximately translates to 300 ng/ml of captured protein. For kinetic measurements biosensors were first pre-wetted with assay buffer for 10 minutes to remove protective sucrose coating followed by the recommended regeneration conditions for standardization of the biosensor surface for the experiment. In order to load the biosensors with antigen, 300 ng/ml of biotinylated CD3 epsilon: delta heterodimer protein (Amsbio AMS.CDD-H52WO) was immobilized on the SA sensor for 900 seconds. The CD3 loaded biosensors were then blocked with 20 ug/ml biocytin (sigma) for 200 seconds and then dipped into assay buffer containing wells for 200 seconds to remove any non-specific protein or unbound CD3 heterodimer.
(§2) CD3 loaded and biocytin blocked biosensors were then transferred into fresh assay buffer for 200 seconds to collect a baseline read. Kinetic measurements for anti-CD3 Fab and bispecific antibody binding were performed by dipping the CD3-coated biosensors into wells containing multiple concentrations of Fab or Ab (0-300 nM) for 100 seconds followed by a 300 second dissociation time by transferring the biosensors into assay buffer containing wells. The CD3 loaded sensors were then regenerated for the next kinetic measurement. Biosensors were generated by removing bound Fabs or Ab from immobilized CD3 on SA biosensors. Regeneration conditions used consisted of 3 cycles of 5 seconds of dipping the biosensors in Regeneration Buffer (10 mM Glycine HCl pH 1.5) followed by Assay Buffer (10 mM sodium phosphate pH 7.4, 140 mM Sodium Chloride, 0.005% Tween20 with 0.2% BSA).
Usually Kd stands for a measure of binding affinity in units of concentration. The low end stands for tighter binding, the high end for weaker binding. By koff is commonly meant the first-order rate constant of dissociation. A higher koff goes with fast dissociation. Usually kon stands for the second-order rate constant of association. On to B1, for which binding was characterised by a dissociation constant (Kd) of 289 nM, the koff is 0.169 s⁻¹ and the kon is 582000 M⁻¹ s⁻¹.

Molecule B2 returned a Kd of 314 nM and a koff of 0.157 s⁻¹.

A further experiment addresses T1, biotinylated CD3 epsilon:delta …. The experiment in a line: BLI (Octet), CD3 on SA sensor, Fab analyte. This is another data set of the same source.
Experimental: as §1, §2
In turn, B3 returned a Kd of 6.2 nM, a koff of 0.00129 s⁻¹ and a kon of 218000 M⁻¹ s⁻¹.

B4 gave a Kd of 14.7 nM, a koff of 0.0015 s⁻¹ and a kon of 109000 M⁻¹ s⁻¹.

In turn, B5 had a Kd of 8.1 nM, a koff of 0.0014 s⁻¹ and a kon of 189000 M⁻¹ s⁻¹.

For the molecule B6, the Kd is 10.8 nM, the koff worked out at 0.00118 s⁻¹ and the kon amounted to 143000 M⁻¹ s⁻¹.

On to B7, for which the affinity, expressed as Kd, was 28.8 nM; the koff is 0.00599 s⁻¹; the kon was found to be 208000 M⁻¹ s⁻¹.

In the case of B8, the Kd was 29.9 nM, the koff is 0.00816 s⁻¹ and the kon turned out to be 273000 M⁻¹ s⁻¹.

As to B9, the Kd came out at 224 nM, the koff is 0.0759 s⁻¹ and the kon came to 339000 M⁻¹ s⁻¹.

Molecule B10 came in with a Kd of 87.1 nM, a koff of 0.0224 s⁻¹ and a kon of 257000 M⁻¹ s⁻¹.

Molecule B11 displayed a dissociation constant (Kd) of 4 nM, a koff of 0.000303 s⁻¹ and a kon of 155000 M⁻¹ s⁻¹.

In turn, B12 showed an equilibrium dissociation constant (Kd) of 9.9 nM, a koff of 0.00164 s⁻¹ and a kon of 193000 M⁻¹ s⁻¹.

The molecule B13 had a Kd of 3.9 nM, a koff of 0.00126 s⁻¹ and a kon of 345000 M⁻¹ s⁻¹.
